In US5882644A, “Monoclonal antibodies specific for the platelet derived growth factor β receptor and methods of use thereof” (Protein Design Labs, Inc., priority 1996, dated 1999):
Entries after “also recorded” stand apart in the source; their conditions may differ.

Experiments:
[1] = test system: PDGF-R β deletion fusion proteins; assay: ELISA epitope mapping with PDGF-R β deletion fusion proteins; assay type: binding, human; conditions: for binding to protein D5 (fifth domain only): separate experiment
Text: To localize the binding sites of the M4TS antibodies on the PDGF-R, a series of PDGF-R β deletion mutants, each consisting of one or more adjacent domains of the extracellular portion of the receptor, was constructed by standard methods including PCR. The deletion constructs were each cloned into an expression plasmid (FIG. 13A) where they were fused to the constant region of the human lambda-1 immunoglobulin light chain, to facilitate detection in ELISA. The constructs were as follows (see FIG. 13B):
These PDGF-R β deletion fusion proteins were transiently expressed, by transfecting 10 μg of the respective expression plasmids into approximately 10^7 S194 mouse myeloma cells (ATCC TIB 19) using the DEAE-dextran method in accordance with the method described by Queen et al. (1984) Mol. Cell. Biol. 4:1042. After the transfected cells had died (4-5 days) and been removed by centrifugation, the culture supernatants containing the PDGF-R β deletion proteins were used in ELISA assays, 100 μl/well. First, the relative levels of the various PDGF-R β deletion proteins were measured in an ELISA where the plate was coated with goat anti-human lambda antibody (Tago) and the proteins detected with HRP-conjugated goat anti-human lambda antibody. […] To determine the ability of the antibodies to bind to each deletion protein, an ELISA was performed in which goat anti-human lambda antibody was used to coat the plate, followed by the cell supernatant and then 0.1 μg of the appropriate antibody, and then bound antibody detected with HRP-conjugated goat-anti-mouse Ig or goat-anti-human Ig antibody as appropriate (Tago). As a positive control, purified soluble PDGF-R β (Example 1) was coated directly on certain wells of the plate (denoted D1-5 in FIG. 14).

[2] = test system: human primary fibroblast cell line AG1523B; assay: Inhibition of PDGF BB-stimulated proliferation of AG1523B fibroblasts; assay type: cell-based; conditions: 300 ng/ml PDGF BB
[3] = test system: PDGF-R β expressed on the cell membrane; assay: Flow cytometry binding to CHO PDGF-R β transfectant cells; set-up: species or system human; conditions: 0.1-1 μg/ml antibody; CHO PDGF-R β transfectants vs untransfected CHO
Method: The cells were washed once in cold PBS and resuspended in 50 μl of PBS containing 10 μg/ml FITC-conjugated goat anti-mouse IgG and incubated for 30 min. After another wash, the cells were fixed by resuspension in 0.25 ml of paraformaldehyde in PBS, and analyzed for fluorescence by flow cytometry on a FACScan (Becton Dickinson).

PDGF-R β [4] = assay: Competitive binding with 125I-PDGF BB on transfectant cells expressing PDGF-R β; set-up: species or system human; conditions: 4° C.
Method: To determine the ability of muM4TS.11 and muM4TS.22 to block binding of PDGF BB to PDGF-R β, the following competitive binding experiments were performed. Transfectant cells expressing PDGF-R β were harvested, washed twice with cold DMEM, and resuspended at 10^6 cells/ml in DMEM. The assay was carried out in triplicate by incubating 100 μl of the cell suspension with either: 1) no antibody (to determine total binding); 2) varying concentrations of antibody; or 3) 100 ng cold PDGF BB (to saturate specific binding sites and determine non-specific binding) for 15 minutes at 4° C. Each sample received 1.0 ng ^125 I-labeled PDGF BB, and was incubated for an additional 60 min at 4° C. Unbound ^125 I-labeled PDGF BB was separated from that bound to the cell by layering the sample over a mixture of 80% dibutylphthalate, 20% olive oil in a microfuge tube, and microfuging briefly to pellet the cells through the oil mixture. The tubes were placed in dry ice to freeze the contents, the tip of the tube containing the cell pellet was cut off into a vial, and radioactivity was determined in a gamma counter.
To assess the ability of HuM4TS.22 to block the binding of PDGF BB to its receptor, competitive binding experiments of HuM4TS.22 with ^125 I-PDGF BB were performed according to the method described in Example 3.
To assess the ability of muM4TS.11 and HuM4TS.11 to block the binding of PDGF BB to the PDGF β receptor, competitive binding experiments of these antibodies with ^125 I-PDGF BB were performed according to the method described in Example 3.

PDGF-R β [5] = assay: Competition with 125I-labeled murine antibody tracer on Sp2/0 PDGF-R β transfectant cells; assay type: binding, human; conditions: Sp2/0 PDGF-R β transfectants; for binding affinity Ka: calculated from competitive binding data
Method: To assess the ability of HuM4TS.22 to compete with muM4TS.22 for receptor binding, increasing concentrations of the two antibodies were respectively incubated on ice for one hour with Sp2/0 PDGF-R β transfectant cells and a fixed amount of tracer ^125 I-labeled muAb. The sample tubes were processed as in the blocking experiment just described.
To assess the ability of HuM4TS.11 to compete with the muAb for receptor binding, increasing concentrations of the two antibodies were respectively incubated on ice for one hour with Sp2/0 PDGF-R β transfectant cells and a fixed amount of tracer ^125 I-labeled M4TS.11. The sample tubes were processed as in the blocking experiment described. […] The binding affinities calculated from the data were: Ka =5×10^8 M^-1 for the muAb and 3×10^7 M^-1 for the HuAb.

[6] = test system: CHO transfectant cell line expressing PDGF-R β (CHO C4); assay: Inhibition of PDGF BB-induced proliferation (3H-thymidine) of CHO C4 cells; assay type: cell-based, Chinese hamster; conditions: for inhibition of PDGF BB-induced proliferation: 50 ng/ml PDGF BB, sufficient antibody concentration
Method: To determine the ability of muM4TS.11 and muM4TS.22 to block PDGF-mediated proliferation, a CHO transfectant cell line expressing PDGF-R β (CHO C4) was generated, as described above. Proliferation of this line, as measured by incorporation of ^3 H-thymidine by DNA synthesis, is stimulated several-fold by PDGF BB. The CHO PDGF-R β transfectants were plated in a 96-well tissue culture plate at about 50,000 cells/well in Ham's F-12+10% FCS and incubated for 1-2 days. The medium was removed, and the cells were washed once with serum-free medium (Ham's F-12+1 mg/ml BSA) and incubated in this media for 1-2 days to put them in a quiescent state. The appropriate amount of antibody in serum-free medium was added, and after 1-3 hours, 50 ng/ml PDGF BB was added. After overnight incubation, 1 μCi ^3 H-thymidine was added, and after a final 4 hour incubation, the cells were harvested using a PHD cell harvester (Cambridge Technology) and analyzed with a scintillation counter.

PDGF-R β [7] = assay: Flow cytometry (FACS) staining of Sp2/0 transfectant cells expressing PDGF-R β; assay type: binding, human; conditions: 50 ng antibody; vs untransfected Sp2/0 cells
Method: The cells were washed with cold PBS, incubated for an additional 30 minutes with FITC-labeled goat-anti-human Ig (Tago Immunologicals) and analyzed by flow cytometry (FACS).
The cells were washed with cold PBS, incubated for an additional 30 minutes with FITC-labeled goat-anti-human Ig (Tago Immunologicals) and analyzed by flow cytometry (FACS). […] Neither an irrelevant control antibody nor the FITC-labeled goat antibody alone stained either cell type.

Row | Molecule | binding to deletion proteins containing only first through second domains ([1]; 0.1 μg antibody) | binding to protein D1-3 ([1]; 0.1 μg antibody) | binding to protein D3 (third domain only) ([1]; 0.1 μg antibody) | binding to protein D5 (fifth domain only) [1] | inhibition of stimulation of proliferation by PDGF BB [2] | specific binding to membrane PDGF-R β by flow cytometry [3] | blocking of 125I-PDGF BB binding to PDGF-R β (PDGF-R β [4]) | competition with labeled murine antibody for receptor binding / binding affinity, in words (PDGF-R β [5]) | binding affinity Ka (PDGF-R β [5]) [M⁻¹] | inhibition of PDGF BB-induced proliferation [6] | FACS staining of Sp2/0 PDGF-R β transfectant cells (PDGF-R β [7]) | inhibition of PDGF-mediated proliferation compared with another antibody [6] | binding to deletion proteins containing only first through third domains ([1]; 0.1 μg antibody) | binding to protein D1-4 ([1]; 0.1 μg antibody)
1 | muM4TS.22: murine monoclonal antibody to PDGF-R β, variable regions SEQ ID NOS:2 and 4; epitope in third extracellular domain (antibody, V domains shown) VL: MRVLAELLGLLLFCFLGVRCDIQMNQSPSSLSASLGDTITITCHASQNINVWLSWYQRKPGNIPKLLIYKASNLHTGVPSRFSGSGSGTGFTLTISSLQPEDIATYYCQQGQSFPFTFGSGTKLEIK VH: MAVLALLLCLVTFPSCALSQVQLKESGPGLVAPSQSLSITCTVSGFSLTNYAINWVRQPPGQGLEWLGIIWTGGGTSYNSALKSRLSISKDNSKSQVFLKMNSLQTDDTARYYCARTGTRGYFFDYWGQGTTLTVSS | do not bind | do bind to protein D1-3 | bind to the protein D3 | none of muM4TS.11 and HuM4TS.11, muM4TS.22 and HuM4TS.22 bound to it | effectively inhibited the stimulation of proliferation by PDGF BB | specifically bound to CHO PDGF-R β transfectant cells but not to untransfected CHO cells | competitively blocked binding of PDGF BB to PDGF-R β; also recorded: did have the ability to block binding of PDGF BB to PDGF-R β | competed with equal efficiencies | 2.6e+08 | completely inhibited proliferation of the cells induced by PDGF BB; also recorded: almost completely inhibited the stimulation of proliferation by PDGF BB | – | – | – | –
2 | HuM4TS.22: humanized muM4TS.22, human IC4 framework, gamma4 constant region; SEQ ID NOS:6 and 8 (antibody, V domains shown) VL: MRVLAELLGLLLFCFLGVRCDIQMTQSPSSLSASVGDRVTITCHASQNINVWLSWYQQKPGKAPKLLIYKASNLHTGVPSRFSGSGSGTGFTLTISSLQPEDIATYYCQQGQSFPFTFGGGTKVEIK VH: MAVLALLLCLVTFPSCALSQVQLQESGPGLVKPSETLSLTCTVSGFSLTNYAINWVRQPPGKGLEWLGIIWTGGGTSYNSALKSRLTISKDTSKNQVSLKLSSVTAADTAVYYCARTGTRGYFFDYWGQGTLVTVSS | do not bind | do bind to protein D1-3 | bind to the protein D3 | none of muM4TS.11 and HuM4TS.11, muM4TS.22 and HuM4TS.22 bound to it | – | – | reduced the binding of radiolabelled PDGF BB ligand to the PDGF-R β transfectant cells to the non-specific level; also recorded: did have the ability to block binding of PDGF BB to PDGF-R β | competed with equal efficiencies | 4e+08 | almost completely inhibited the stimulation of proliferation by PDGF BB | stained the transfectant cells but did not stain untransfected Sp2/0 cells at all | about equally as well as muM4TS.22 | – | –
3 | HuM4TS.11: humanized muM4TS.11, human III-2R framework, gamma4 constant region; SEQ ID NOS:14 and 16 (antibody, V domains shown) VL: METDTLLLWVLLLWVPGSTGDIQMTQSPSSLSASVGDRVTITCRASESVDSYGNSFMHWYQQKPGKAPKLLIYRASNLESGIPSRFSGSGSRTDFTLTISSLQPEDVATYYCQQSNEDPPTFGQGTKVEIK VH: MGWSWIFLFLLSGTAGVHSQVQLVQSGAEVKKPGASVKVSCKASGYTFTNCWMHWVRQAPGQGLEWIGYINPTTGYSEYNQNFKDKATITADKSTSTAYMELSSLRSEDTAVYYCTSNYGHYDWFGNWGQGTLVT | – | – | – | none of muM4TS.11 and HuM4TS.11, muM4TS.22 and HuM4TS.22 bound to it | – | – | neither muM4TS.11 nor HuM4TS.11 were able to inhibit binding of PDGF BB to its receptor | competed less well than muM4TS.11 | 3e+07 | almost completely inhibited the stimulation of proliferation by PDGF BB | stained the transfectant cells but did not stain untransfected Sp2/0 cells at all | nearly as well as muM4TS.11; also recorded: about equally well | do not bind | do bind to protein D1-4
